From paper PMC9901739

Biological target: acetylesterase LgEstI from Lactococcus garvieae (Lactococcus garvieae)
Assay: SEC; Superdex 200 10/300 GL; 20 mM Tris-HCl pH 8.0, 200 mM NaCl, 1 mM TCEP, 5% glycerol; standard curve from a protein standard mix of 15-600 kDa

- stoichiometry N: 2
Substance: acetylesterase LgEstI from Lactococcus garvieae (enzyme)
